Non-standard residues stand in square brackets, D forms with d. No end group written: not given here. Cit = NC(=O)NCCC[C@H](N)C(=O)O
Assays:
[1] = target: T1, msFibα XH (mouse, X at position 15 = citrulline; biotin-labelled); assay: ELISA, Ab 2 ug/well
T1 peptide: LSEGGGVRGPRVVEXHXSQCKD
Protocol: (§1) Biotin and citrulline-containing peptides derived from fibrinogen and vimentin were immobilized on NEUTRAVIDIN®-coated 96-well ELISA plates (0.3 μg/well). CFC-1 and CFC-0 were coated at the same concentration and served as positive and negative controls, respectively, for specific anti-citrulline reactivity and as coating controls. Non-coated wells were used to test for aspecific binding of the antibodies. […] Detection of bound anti-citrulline antibodies was performed by incubating the wells with rabbit anti-human HRP (1:2000) for 1 hour at RT followed by incubation with TMB substrate. The resulting OD (y-axis) is a measure for antibody binding.
(§2) Biotin-labeled and citrulline-containing fibrinogen and vimentin peptides (Table 5) were also tested for reactivity with the therapeutic antibodies. Peptides were coated on 96-well NEUTRAVIDIN®-ELISA plates.

[2] = target: T2, huFibα XH (human, X at position 15 = citrulline; biotin-labelled); assay: ELISA, Ab 2 ug/well
T2 peptide: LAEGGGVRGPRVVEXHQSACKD
Protocol: as §1, §2

[3] = target: T3, huFibα XG (human, X at position 8 = citrulline; biotin-labelled); assay: ELISA, Ab 2 ug/well
T3 peptide: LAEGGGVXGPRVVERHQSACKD
Protocol: as §1, §2

[4] = target: T4, msVim XS/XL (mouse, also: biotin-labelled); assay: ELISA, Ab 2 ug/well
T4 construct: also called mouse vimentin peptide
T4 peptide: YVT[Cit]SSAV[Cit]L[Cit]SSVP
Protocol: as §1, §2

[5] = target: T5, CFC-1; assay: ELISA, Ab 0.4 ug/well
T5 construct: Positive control for anti-citrulline reactivity; also called cfc1 XG; Cfc1-peptide
Protocol: as §1, §2

[6] = target: T2, huFibα XH; assay: ELISA, Ab 0.4 ug/well
Protocol: as §1, §2

[7] = target: T3, huFibα XG; assay: ELISA, Ab 0.4 ug/well
Protocol: as §1, §2

[8] = target: T6, msFibβ XG (mouse, also: biotin-labelled); assay: ELISA, Ab 0.4 ug/well
T6 construct: also called mouse fibrinogen β peptide
T6 peptide: EPTDSLDA[Cit]GHRPVDRR
Protocol: as §1, §2

[9] = target: T5, CFC-1; assay: ELISA, Ab 0.016 ug/well
Protocol: as §1, with “histone 2A” for “fibrinogen and vimentin”

[10] = target: T7, peptide no. 1 (human histone 2A) (human, also: biotin-labelled); assay: ELISA, Ab 0.016 ug/well
T7 construct: also called peptide 1; AAASGXGKQGGK
T7 peptide: AAASG[Cit]GKQGGK
Protocol: as §1, with “histone 2A” for “fibrinogen and vimentin”

[11] = target: T8, peptide no. 2 (human histone 2A) (human, also: biotin-labelled); assay: ELISA, Ab 0.016 ug/well
T8 construct: also called peptide 2
T8 peptide: AKAKS[Cit]SSRAGL
Protocol: as §1, with “histone 2A” for “fibrinogen and vimentin”

[12] = target: T9, peptide no. 3 (human histone 2A) (human, also: biotin-labelled); assay: ELISA, Ab 0.016 ug/well
T9 construct: also called peptide 3
T9 peptide: KSRSS[Cit]AGLQFP
Protocol: as §1, with “histone 2A” for “fibrinogen and vimentin”

[13] = target: T10, peptide no. 4 (human histone 2A) (human, also: biotin-labelled); assay: ELISA, Ab 0.016 ug/well
T10 construct: also called peptide 4
T10 peptide: QFPVG[Cit]VHRLLR
Protocol: as §1, with “histone 2A” for “fibrinogen and vimentin”

[14] = target: T11, peptide no. 5 (human histone 2A) (human, also: biotin-labelled); assay: ELISA, Ab 0.016 ug/well
T11 construct: also called peptide 5
T11 peptide: VGRVH[Cit]LLRKGN
Protocol: as §1, with “histone 2A” for “fibrinogen and vimentin”

[15] = target: T12, peptide no. 6 (human histone 2A) (human, also: biotin-labelled); assay: ELISA, Ab 0.016 ug/well
T12 construct: also called peptide 6
T12 peptide: VHRLL[Cit]KGNYSE
Protocol: as §1, with “histone 2A” for “fibrinogen and vimentin”

[16] = target: T13, peptide no. 7 (human histone 2A) (human, also: biotin-labelled); assay: ELISA, Ab 0.016 ug/well
T13 construct: also called peptide 7
T13 peptide: GNYSE[Cit]VGAGAP
Protocol: as §1, with “histone 2A” for “fibrinogen and vimentin”

[17] = target: T14, peptide no. 8 (human histone 2A) (human, also: biotin-labelled); assay: ELISA, Ab 0.016 ug/well
T14 construct: also called peptide 8
T14 peptide: AGNAA[Cit]DNKKTR
Protocol: as §1, with “histone 2A” for “fibrinogen and vimentin”

[18] = target: T15, peptide no. 9 (human histone 2A) (human, also: biotin-labelled); assay: ELISA, Ab 0.016 ug/well
T15 construct: also called peptide 9
T15 peptide: DNKKT[Cit]IIPRHL
Protocol: as §1, with “histone 2A” for “fibrinogen and vimentin”

[19] = target: T16, peptide no. 10 (human histone 2A) (human, also: biotin-labelled); assay: ELISA, Ab 0.016 ug/well
T16 construct: also called peptide 10
T16 peptide: TRIIP[Cit]HLQLAI
Protocol: as §1, with “histone 2A” for “fibrinogen and vimentin”

[20] = target: T17, peptide no. 11 (human histone 2A) (human, also: biotin-labelled); assay: ELISA, Ab 0.016 ug/well
T17 construct: also called peptide 11
T17 peptide: LQLAI[Cit]NDEELN
Protocol: as §1, with “histone 2A” for “fibrinogen and vimentin”

[21] = target: T18, peptide no. 12 (human histone 2A) (human, also: biotin-labelled); assay: ELISA, Ab 0.016 ug/well
T18 construct: also called peptide 12
T18 peptide: NKLLG[Cit]VTIAQG
Protocol: as §1, with “histone 2A” for “fibrinogen and vimentin”

[22] = target: T5, CFC-1; assay: ELISA, Ab 0.016 ug/well; remark: listed apart in the source
Protocol: as §1, §2

[23] = target: T1, msFibα XH; assay: ELISA, Ab 0.016 ug/well
Protocol: as §1, §2

[24] = target: T19, msFibα XG (mouse, X at position 8 = citrulline; biotin-labelled); assay: ELISA, Ab 0.016 ug/well
T19 peptide: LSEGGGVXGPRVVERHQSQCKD
Protocol: as §1, §2

[25] = target: T2, huFibα XH; assay: ELISA, Ab 0.016 ug/well
Protocol: as §1, §2

[26] = target: T3, huFibα XG; assay: ELISA, Ab 0.016 ug/well
Protocol: as §1, §2

[27] = target: T6, msFibβ XG; assay: ELISA, Ab 0.016 ug/well
Protocol: as §1, §2

[28] = target: T4, msVim XS/XL; assay: ELISA, Ab 0.016 ug/well
Protocol: as §1, §2

B1: RhmAb2.102 (antibody, human IgG1, lambda)
heavy: not shown
light: QSVLTQPPSMSAAPGQKVTISCSGSSSNIGNNYVSWYQQVPGTAPKLLIYDDNKRPSGIPGRFSGSKSATSATLGITGLQAGDEADYYCGSWDDNLSVVLFGGGTKLTVLGQPKAAPSVTLFPPSSEELQANKATLVCLISDFYPGAVTVAWKADSSPVKAGVETTTPSKQSNNKYAASSYLSLTPEQWKSHRSYSCQVTHEGSTVEKTVAPTECS
notes: Human IgG1 lambda; also called Rhm2.102
- OD [1]: 0.091 OD450
- OD [2]: 0.116 OD450
- OD [3]: 1.51 OD450
- OD [4]: 2.77 OD450
- OD [5]: 3.79 OD450
- OD [6]: 0.09 OD450
- OD [7]: 0.521 OD450
- OD [8]: 1.67 OD450
- OD [9]: 1.46 OD450
- OD [10]: 0.843 OD450
- OD [11]: 0.065 OD450
- OD [12]: 0.07 OD450
- OD [13]: 0.084 OD450
- OD [14]: 0.065 OD450
- OD [15]: 0.075 OD450
- OD [16]: 0.061 OD450
- OD [17]: 0.063 OD450
- OD [18]: 0.064 OD450
- OD [19]: 0.066 OD450
- OD [20]: 0.069 OD450
- OD [21]: 0.057 OD450
- OD [22]: 1.22 OD450
- OD [23]: 0.081 OD450
- OD [24]: 0.107 OD450
- OD [25]: 0.08 OD450
- OD [26]: 0.103 OD450
- OD [27]: 0.174 OD450
- OD [28]: 0.201 OD450

From patent publication US20150307603A1 (MODIQUEST B V, published 2015)
